Experimental data from publication PMC10350561 (MicrobiologyOpen, 2023).

Biological target: staphylococcal superantigen-like protein 1 (Staphylococcus aureus, strain of the …, UniProt A0A0H3KAV3)
Test: ELISA
Details: one partner purified

Chain of staphylococcal superantigen-like protein 1 (A0A0H3KAV3 31-226): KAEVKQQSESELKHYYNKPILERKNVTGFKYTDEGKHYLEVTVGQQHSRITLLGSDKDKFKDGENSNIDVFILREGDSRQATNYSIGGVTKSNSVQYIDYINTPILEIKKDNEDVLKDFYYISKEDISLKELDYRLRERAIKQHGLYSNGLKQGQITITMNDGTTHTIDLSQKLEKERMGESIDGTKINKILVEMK

B1: scFv-99 (scFv-ALP fusion) (scFv, V domains shown)
VH: EVQLLESGGGLVQPGGSLRLSCAASGFTFSNYSMHWVRQAPGKGLEWVSVIDYNSGYTDYADSVKGRFTISRDNSKNTLYLQMNSLRAEDTAVYYCARGIFDYWGQGTLVTVSS
VL: EIVLTQSPGTLSLSPGERATLSCRASQSVSSSALAWYQQKPGQAPRLLIYGASSRATGVPDRFSGSGSGTDFTLTISRLEPEDFAVYYCQQSSSTPWTFGQGTKVEIK
- binding result: binds
